Assay results reported in publication PMC8290868 (Cell Discovery, 2021).

Target: SARS-CoV-2 spike receptor-binding domain (RBD), wild type (Severe acute respiratory syndrome …, UniProt P0DTC2)
Test: SPR
Settings: both partners purified

B1: 7B8, recombinant fully human IgG1 (antibody, V domains shown)
VH: QVQLVESGGGVVQPGRSLRLSCAASGFIFSSYGMHWVRQAPGKGLEWVAVIWFDGSNKYYADSVKGRFTISRDNSKNTLYLQMNSLRAEDTAVYYCARETVSYGMDVWGQGTTVTVSS
VL: NIQMTQSPSAMSASVGDRVTITCRARQGISNYLAWFQQKPGKVPKHLIYAASSLLSGVPSRFSGSGSETEFTLTISSLQPEDFATYYCLQHNSYPYTFGQGTKLEIK
notes: also called Ab4; source: ExpiCHO-S, transient expression, purified (protein A)
Kd: 0.523 nM | koff: 9.55e-05 s⁻¹ | kon: 182000 M⁻¹ s⁻¹
